Test results from patent publication US20200262877A1, “ION CHANNEL-BINDING PEPTIDES AND METHODS OF USE THEREOF” (priority 2017, published 2020).

Experiments:
[1] = test system: GABA; assay: Ion channel panel (IonWorks Barracuda): GABA; format: cell-based; details: 100% = no change, <100% = inhibition
Outline: (§1)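 Transfected HEK293 or CHO cells were exposed for at least 5 min to peptides at 200 nM and 20 μM final, tested in duplicate, in HEPES-buffered physiological saline. Activation was taken as peptide-plus-agonist current over control current ×100, and inhibition as 1 minus that ratio ×100. Each channel's control was its own reference compound.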

[2] = molecular target: T1, Cav2.2 (Homo sapiens, UniProt Q00975); assay: cell-based; details: 100% = no change, <100% = inhibition
T1 construct: host or cells: HEK293 or CHO
Outline: as §1

[3] = molecular target: T2, Kv2.1 (Homo sapiens, UniProt Q14721); assay: cell-based; details: 100% = no change, <100% = inhibition
T2 construct: host or cells: HEK293 or CHO
Outline: as §1

[4] = molecular target: T3, Cav2.1 (Homo sapiens, UniProt O00555); assay: cell-based; details: 100% = no change, <100% = inhibition
T3 construct: host or cells: HEK293 or CHO
Outline: as §1

[5] = molecular target: T4, Kir2.1 (Homo sapiens, UniProt P63252); assay: Ion channel panel (IonWorks Barracuda): Kir2.1; format: cell-based; details: 100% = no change, <100% = inhibition
T4 construct: host or cells: HEK293 or CHO
Outline: as §1

[6] = molecular target: T5, NR2B (Homo sapiens, UniProt Q13224); assay: Ion channel panel (IonWorks Barracuda): NR2B; format: cell-based; details: 100% = no change, <100% = inhibition
T5 construct: host or cells: HEK293 or CHO
Outline: as §1

[7] = molecular target: T6, Kv1.2 (Homo sapiens, UniProt P16389); assay: cell-based; format: cell-based; details: 100% = no change, <100% = inhibition
T6 construct: host or cells: HEK293 or CHO
Outline: as §1

[8] = molecular target: T7, Kv1.1 (Homo sapiens, UniProt Q09470); assay: cell-based; format: cell-based; details: 100% = no change, <100% = inhibition
T7 construct: host or cells: HEK293 or CHO
Outline: as §1

[9] = molecular target: T8, Kv1.3 (Homo sapiens, UniProt P22001); assay: cell-based; format: cell-based; details: 100% = no change, <100% = inhibition
T8 construct: host or cells: HEK293 or CHO
Outline: as §1

[10] = molecular target: T9, NR2A (Homo sapiens, UniProt Q12879); assay: Ion channel panel (IonWorks Barracuda): NR2A; format: cell-based; details: 100% = no change, <100% = inhibition
T9 construct: host or cells: HEK293 or CHO
Outline: as §1

[11] = molecular target: T10, α3β4 (Homo sapiens, UniProt P30926+P32297); assay: Ion channel panel (IonWorks Barracuda): α3β4; format: cell-based; details: 100% = no change, <100% = inhibition
T10 construct: host or cells: HEK293 or CHO
Outline: as §1

[12] = molecular target: T11, TRPA1 (Homo sapiens, UniProt O75762); assay: Ion channel panel (IonWorks Barracuda): TRPA1; format: cell-based; details: 100% = no change, <100% = inhibition
T11 construct: host or cells: HEK293 or CHO
Outline: as §1

[13] = molecular target: T12, α4β2 (Homo sapiens, UniProt P17787+P43681); assay: Ion channel panel (IonWorks Barracuda): α4β2; format: cell-based; details: 100% = no change, <100% = inhibition
T12 construct: host or cells: HEK293 or CHO
Outline: as §1

[14] = molecular target: T13, 5HT3a (Homo sapiens, UniProt P46098); assay: Ion channel panel (IonWorks Barracuda): 5HT3a; format: cell-based
T13 construct: host or cells: HEK293 or CHO
T13 sequence (P46098 whole entry, looked up): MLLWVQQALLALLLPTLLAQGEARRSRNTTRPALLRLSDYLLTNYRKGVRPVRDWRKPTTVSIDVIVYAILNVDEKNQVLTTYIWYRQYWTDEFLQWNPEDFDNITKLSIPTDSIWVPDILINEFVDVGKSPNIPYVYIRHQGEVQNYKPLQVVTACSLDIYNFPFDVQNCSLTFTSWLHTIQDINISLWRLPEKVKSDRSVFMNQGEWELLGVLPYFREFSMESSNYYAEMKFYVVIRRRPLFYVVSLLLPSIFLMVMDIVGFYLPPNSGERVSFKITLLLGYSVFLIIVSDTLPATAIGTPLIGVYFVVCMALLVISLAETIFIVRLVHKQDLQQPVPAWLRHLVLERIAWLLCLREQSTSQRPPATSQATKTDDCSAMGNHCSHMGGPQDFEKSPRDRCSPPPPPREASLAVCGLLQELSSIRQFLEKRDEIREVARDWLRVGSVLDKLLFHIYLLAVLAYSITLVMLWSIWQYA
Outline: as §1

[15] = molecular target: T14, Nav1.7 (Homo sapiens, UniProt Q15858); assay: cell-based; format: cell-based; details: 100% = no change; for Activity of Nav1.7 with peptide, expressed as a percentage of the reference compound: peptide at 0.2 μM; for Activity of Nav1.7 with peptide (percentage of the reference compound): peptide at 20 μM
T14 construct: host or cells: HEK293 or CHO
T14 sequence (Q15858 whole entry): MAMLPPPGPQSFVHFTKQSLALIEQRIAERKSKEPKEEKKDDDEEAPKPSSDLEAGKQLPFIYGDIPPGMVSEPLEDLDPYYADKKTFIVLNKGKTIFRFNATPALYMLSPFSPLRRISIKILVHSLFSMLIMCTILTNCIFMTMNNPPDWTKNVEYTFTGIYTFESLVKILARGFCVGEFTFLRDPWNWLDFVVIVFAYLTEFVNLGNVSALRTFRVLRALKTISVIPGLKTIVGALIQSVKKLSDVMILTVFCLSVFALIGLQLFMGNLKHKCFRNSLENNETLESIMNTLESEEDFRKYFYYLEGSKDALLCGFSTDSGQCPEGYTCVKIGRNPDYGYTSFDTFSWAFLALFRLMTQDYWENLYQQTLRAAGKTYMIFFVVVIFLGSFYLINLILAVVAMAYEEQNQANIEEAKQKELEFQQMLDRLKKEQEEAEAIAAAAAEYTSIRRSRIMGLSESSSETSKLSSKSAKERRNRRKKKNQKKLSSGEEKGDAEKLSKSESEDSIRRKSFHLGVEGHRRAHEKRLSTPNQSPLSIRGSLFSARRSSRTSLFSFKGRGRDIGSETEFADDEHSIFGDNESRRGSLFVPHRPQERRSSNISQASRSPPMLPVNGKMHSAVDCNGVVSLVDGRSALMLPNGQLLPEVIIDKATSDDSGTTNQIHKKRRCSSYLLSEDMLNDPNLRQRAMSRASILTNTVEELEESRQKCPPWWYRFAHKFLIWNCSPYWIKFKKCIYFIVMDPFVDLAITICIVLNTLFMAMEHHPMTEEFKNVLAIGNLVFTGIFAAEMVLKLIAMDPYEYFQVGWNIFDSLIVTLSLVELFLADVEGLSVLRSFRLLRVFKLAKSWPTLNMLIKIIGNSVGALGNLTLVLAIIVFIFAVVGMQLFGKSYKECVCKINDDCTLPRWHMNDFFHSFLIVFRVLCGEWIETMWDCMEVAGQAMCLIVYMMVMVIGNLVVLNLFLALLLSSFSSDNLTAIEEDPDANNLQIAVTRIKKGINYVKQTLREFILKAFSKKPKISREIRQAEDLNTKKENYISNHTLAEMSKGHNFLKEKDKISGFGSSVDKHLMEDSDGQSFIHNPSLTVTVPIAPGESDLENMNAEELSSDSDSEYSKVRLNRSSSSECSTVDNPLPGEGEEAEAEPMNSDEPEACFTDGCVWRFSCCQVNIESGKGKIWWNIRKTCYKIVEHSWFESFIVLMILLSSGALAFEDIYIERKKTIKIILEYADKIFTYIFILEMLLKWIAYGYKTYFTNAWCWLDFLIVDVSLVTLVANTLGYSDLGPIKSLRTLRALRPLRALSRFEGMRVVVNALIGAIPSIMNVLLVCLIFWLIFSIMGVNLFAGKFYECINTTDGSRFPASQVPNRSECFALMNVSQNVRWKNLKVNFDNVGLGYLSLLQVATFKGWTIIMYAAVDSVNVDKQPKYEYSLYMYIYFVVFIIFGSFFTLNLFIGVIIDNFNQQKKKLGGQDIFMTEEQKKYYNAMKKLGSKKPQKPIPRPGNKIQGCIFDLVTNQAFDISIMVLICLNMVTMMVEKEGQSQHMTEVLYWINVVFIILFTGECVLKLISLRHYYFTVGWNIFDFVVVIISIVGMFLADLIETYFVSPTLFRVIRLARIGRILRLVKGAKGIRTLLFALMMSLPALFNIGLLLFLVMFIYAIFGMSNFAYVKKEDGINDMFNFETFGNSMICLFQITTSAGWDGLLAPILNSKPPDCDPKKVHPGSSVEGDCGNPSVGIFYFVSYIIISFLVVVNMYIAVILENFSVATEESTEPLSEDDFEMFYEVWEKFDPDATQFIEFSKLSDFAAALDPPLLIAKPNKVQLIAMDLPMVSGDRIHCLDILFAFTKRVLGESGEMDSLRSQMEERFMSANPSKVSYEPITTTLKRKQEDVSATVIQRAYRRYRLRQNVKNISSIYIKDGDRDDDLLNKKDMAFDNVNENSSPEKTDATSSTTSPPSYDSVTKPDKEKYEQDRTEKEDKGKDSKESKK

[16] = molecular target: T15, TRPV1 (Homo sapiens, UniProt Q8NER1); assay: Ion channel panel (IonWorks Barracuda): TRPV1; format: cell-based; details: 100% = no change, <100% = inhibition
T15 construct: host or cells: HEK293 or CHO
T15 sequence (Q8NER1 whole entry): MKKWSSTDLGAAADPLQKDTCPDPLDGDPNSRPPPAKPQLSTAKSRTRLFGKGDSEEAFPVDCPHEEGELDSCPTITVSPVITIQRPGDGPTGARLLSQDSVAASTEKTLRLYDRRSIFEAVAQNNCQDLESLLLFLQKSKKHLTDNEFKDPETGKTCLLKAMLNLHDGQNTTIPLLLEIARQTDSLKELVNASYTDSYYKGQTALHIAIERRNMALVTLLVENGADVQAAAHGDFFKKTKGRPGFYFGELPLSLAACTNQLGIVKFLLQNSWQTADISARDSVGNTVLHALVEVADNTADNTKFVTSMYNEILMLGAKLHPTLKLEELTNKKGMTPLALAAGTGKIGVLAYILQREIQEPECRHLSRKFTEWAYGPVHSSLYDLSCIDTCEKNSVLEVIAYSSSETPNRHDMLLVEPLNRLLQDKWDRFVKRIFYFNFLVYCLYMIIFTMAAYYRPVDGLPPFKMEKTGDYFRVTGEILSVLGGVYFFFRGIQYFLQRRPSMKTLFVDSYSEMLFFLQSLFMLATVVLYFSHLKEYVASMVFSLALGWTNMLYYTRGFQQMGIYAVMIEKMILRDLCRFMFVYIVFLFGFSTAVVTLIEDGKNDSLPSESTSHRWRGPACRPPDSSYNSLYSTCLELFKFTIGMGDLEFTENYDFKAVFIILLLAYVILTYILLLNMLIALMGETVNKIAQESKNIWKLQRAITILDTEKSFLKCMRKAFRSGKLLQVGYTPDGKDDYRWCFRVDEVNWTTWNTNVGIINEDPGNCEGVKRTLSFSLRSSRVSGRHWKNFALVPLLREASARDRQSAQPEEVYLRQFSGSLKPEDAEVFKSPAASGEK
Outline: as §1

[17] = molecular target: hERG (Homo sapiens, UniProt Q12809); assay: in vitro; details: 100% = no change, <100% = inhibition
Outline: as §1

[18] = molecular target: Nav1.5 (Homo sapiens, UniProt Q14524); assay: in vitro; details: 100% = no change; for Activity of Nav1.5 with peptide, expressed as a percentage of the reference compound: peptide at 0.2 μM; for Activity of Nav1.5 with peptide (percentage of the reference compound): peptide at 20 μM
Sequence of Nav1.5 (Q14524 whole entry): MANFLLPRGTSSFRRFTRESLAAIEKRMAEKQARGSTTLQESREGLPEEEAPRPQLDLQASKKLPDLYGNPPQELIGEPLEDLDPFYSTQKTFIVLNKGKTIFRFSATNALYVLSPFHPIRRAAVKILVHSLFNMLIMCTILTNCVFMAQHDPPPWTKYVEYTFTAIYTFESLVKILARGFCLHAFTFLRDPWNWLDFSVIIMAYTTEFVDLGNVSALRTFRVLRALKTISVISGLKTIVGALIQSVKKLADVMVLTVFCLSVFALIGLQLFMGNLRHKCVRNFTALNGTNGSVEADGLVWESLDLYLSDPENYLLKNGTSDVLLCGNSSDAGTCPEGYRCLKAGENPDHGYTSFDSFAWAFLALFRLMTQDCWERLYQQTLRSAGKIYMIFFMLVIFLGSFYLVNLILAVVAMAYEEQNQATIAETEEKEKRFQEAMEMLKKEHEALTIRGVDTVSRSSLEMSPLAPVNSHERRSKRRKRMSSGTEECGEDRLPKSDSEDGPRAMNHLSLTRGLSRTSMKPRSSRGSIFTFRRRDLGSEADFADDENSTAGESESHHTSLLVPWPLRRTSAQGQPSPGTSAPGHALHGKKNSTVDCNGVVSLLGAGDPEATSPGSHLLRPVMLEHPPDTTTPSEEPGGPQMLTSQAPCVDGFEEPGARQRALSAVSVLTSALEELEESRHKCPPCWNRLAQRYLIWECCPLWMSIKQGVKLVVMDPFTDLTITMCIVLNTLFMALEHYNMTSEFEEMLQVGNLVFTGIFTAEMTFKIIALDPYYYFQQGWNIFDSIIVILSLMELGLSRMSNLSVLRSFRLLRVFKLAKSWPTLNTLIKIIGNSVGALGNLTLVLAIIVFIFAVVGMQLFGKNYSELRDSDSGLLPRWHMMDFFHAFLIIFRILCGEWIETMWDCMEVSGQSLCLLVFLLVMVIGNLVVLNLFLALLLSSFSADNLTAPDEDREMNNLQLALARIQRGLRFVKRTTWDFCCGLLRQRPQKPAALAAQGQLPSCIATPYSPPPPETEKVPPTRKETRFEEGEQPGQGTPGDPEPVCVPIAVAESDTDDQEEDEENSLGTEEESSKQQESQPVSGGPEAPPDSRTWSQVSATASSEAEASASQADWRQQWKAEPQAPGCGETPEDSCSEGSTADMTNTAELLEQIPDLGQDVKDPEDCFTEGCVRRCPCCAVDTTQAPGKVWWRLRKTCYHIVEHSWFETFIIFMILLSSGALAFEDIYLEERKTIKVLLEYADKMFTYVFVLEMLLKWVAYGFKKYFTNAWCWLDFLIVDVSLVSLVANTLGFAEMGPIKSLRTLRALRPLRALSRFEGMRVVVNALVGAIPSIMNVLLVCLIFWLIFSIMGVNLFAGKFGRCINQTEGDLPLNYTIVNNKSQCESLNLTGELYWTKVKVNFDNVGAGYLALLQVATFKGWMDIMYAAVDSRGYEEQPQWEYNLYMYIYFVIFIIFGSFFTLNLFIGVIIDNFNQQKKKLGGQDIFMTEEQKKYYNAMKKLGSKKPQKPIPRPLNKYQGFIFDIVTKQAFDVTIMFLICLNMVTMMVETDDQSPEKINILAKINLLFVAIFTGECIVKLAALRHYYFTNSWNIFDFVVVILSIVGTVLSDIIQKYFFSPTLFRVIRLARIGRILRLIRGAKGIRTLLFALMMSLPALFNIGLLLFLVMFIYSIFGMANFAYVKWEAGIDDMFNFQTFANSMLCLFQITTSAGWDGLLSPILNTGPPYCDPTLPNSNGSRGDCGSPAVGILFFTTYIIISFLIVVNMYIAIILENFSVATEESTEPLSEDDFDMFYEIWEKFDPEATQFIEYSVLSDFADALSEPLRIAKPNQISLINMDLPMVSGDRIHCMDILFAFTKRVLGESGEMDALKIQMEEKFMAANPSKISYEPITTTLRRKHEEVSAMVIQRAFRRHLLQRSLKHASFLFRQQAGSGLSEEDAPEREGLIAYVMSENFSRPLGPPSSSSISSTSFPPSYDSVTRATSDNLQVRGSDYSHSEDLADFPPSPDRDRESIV
Outline: as §1

[19] = first of two Nav1.7 columns (probably TP1)
[20] = second of two Nav1.7 columns (probably TP2)
[21] = first of two Nav1.5 columns (probably TP1)
[22] = second of two Nav1.5 columns (probably TP2)

Substance: 11 (GSGDCLPHLKRCKENNDCCSKKCKRRGANPEKRCR) [compound 11]
- Activity of GABA with peptide, expressed as a percentage of the reference compound ([1]; peptide at 0.2 μM): 96%
- Activity of GABA with peptide (percentage of the reference compound) ([1]; peptide at 20 μM): 105%
- Activity of Cav2.2 with peptide, expressed as a percentage of the reference compound ([2]; peptide at 0.2 μM): 100%
- Activity of Cav2.2 with peptide (percentage of the reference compound) ([2]; peptide at 20 μM): 103%
- Activity of Kv2.1 with peptide, expressed as a percentage of the reference compound ([3]; peptide at 0.2 μM): 121%
- Activity of Kv2.1 with peptide (percentage of the reference compound) ([3]; peptide at 20 μM): 110%
- Activity of Cav2.1 with peptide, expressed as a percentage of the reference compound ([4]; peptide at 0.2 μM): 104%
- Activity of Cav2.1 with peptide (percentage of the reference compound) ([4]; peptide at 20 μM): 110%
- Activity of Kir2.1 with peptide, expressed as a percentage of the reference compound ([5]; peptide at 0.2 μM): 107%
- Activity of Kir2.1 with peptide (percentage of the reference compound) ([5]; peptide at 20 μM): 97%
- Activity of NR2B with peptide, expressed as a percentage of the reference compound ([6]; peptide at 0.2 μM): 103%
- Activity of NR2B with peptide (percentage of the reference compound) ([6]; peptide at 20 μM): 78%
- Activity of Kv1.2 with peptide, expressed as a percentage of the reference compound ([7]; peptide at 0.2 μM): 103%
- Activity of Kv1.2 with peptide (percentage of the reference compound) ([7]; peptide at 20 μM): 46%
- Activity of Kv1.1 with peptide, expressed as a percentage of the reference compound ([8]; peptide at 0.2 μM): 99%
- Activity of Kv1.1 with peptide (percentage of the reference compound) ([8]; peptide at 20 μM): 55%
- Activity of Kv1.3 with peptide, expressed as a percentage of the reference compound ([9]; peptide at 0.2 μM): 101%
- Activity of Kv1.3 with peptide (percentage of the reference compound) ([9]; peptide at 20 μM): 87%
- Activity of NR2A with peptide, expressed as a percentage of the reference compound ([10]; peptide at 0.2 μM): 103%
- Activity of NR2A with peptide (percentage of the reference compound) ([10]; peptide at 20 μM): 106%
- Activity of a3b4 with peptide, expressed as a percentage of the reference compound ([11]; peptide at 0.2 μM): 95%
- Activity of a3b4 with peptide (percentage of the reference compound) ([11]; peptide at 20 μM): 96%
- Activity of TRPA1 with peptide, expressed as a percentage of the reference compound ([12]; peptide at 0.2 μM): 100%
- Activity of TRPA1 with peptide (percentage of the reference compound) ([12]; peptide at 20 μM): 109%
- Activity of a4b2 with peptide, expressed as a percentage of the reference compound ([13]; peptide at 0.2 μM): 111%
- Activity of a4b2 with peptide (percentage of the reference compound) ([13]; peptide at 20 μM): 88%
- Activity of 5HT3a with peptide (percentage of the reference compound) [14]: 85%
- Activity of 5HT3a with peptide, expressed as a percentage of the reference compound [14]: 73%
- Activity of Nav1.7 with peptide, expressed as a percentage of the reference compound [15, 19]: 107%
- Activity of Nav1.7 with peptide, expressed as a percentage of the reference compound [15, 20]: 107%
- Activity of Nav1.7 with peptide (percentage of the reference compound) [15, 19]: 96%
- Activity of Nav1.7 with peptide (percentage of the reference compound) [15, 20]: 87%
- Activity of TRPV1 with peptide, expressed as a percentage of the reference compound ([16]; peptide at 0.2 μM): 100%
- Activity of TRPV1 with peptide (percentage of the reference compound) ([16]; peptide at 20 μM): 100%
- Activity of hERG with peptide, expressed as a percentage of the reference compound ([17]; peptide at 0.2 μM): 97%
- Activity of hERG with peptide (percentage of the reference compound) ([17]; peptide at 20 μM): 99%
- Activity of Nav1.5 with peptide, expressed as a percentage of the reference compound [18, 21]: 107%
- Activity of Nav1.5 with peptide, expressed as a percentage of the reference compound [18, 22]: 107%
- Activity of Nav1.5 with peptide (percentage of the reference compound) [18, 21]: 113%
- Activity of Nav1.5 with peptide (percentage of the reference compound) [18, 22]: 118%
